Measured values published in patent publication US20140005126A1 (ISOGENICA, published 2014).
Bridges are numbered along the chain shown (N, C = ends). Where no end group is shown, it is not given here. The star is where a group is joined. Biotin = O=C1N[C@H]2[C@H](CS[C@H]2CCCCC(=O)*)N1

Tests used:
[1] = biological target: T1, human serum albumin (human, UniProt P02768 25-609); assay: phage ELISA: phage-displayed clone on HSA-coated control wells (right bar of each pair), read at 450 nm
T1 construct: also called HSA
T1 sequence (P02768 25-609 limits assumed): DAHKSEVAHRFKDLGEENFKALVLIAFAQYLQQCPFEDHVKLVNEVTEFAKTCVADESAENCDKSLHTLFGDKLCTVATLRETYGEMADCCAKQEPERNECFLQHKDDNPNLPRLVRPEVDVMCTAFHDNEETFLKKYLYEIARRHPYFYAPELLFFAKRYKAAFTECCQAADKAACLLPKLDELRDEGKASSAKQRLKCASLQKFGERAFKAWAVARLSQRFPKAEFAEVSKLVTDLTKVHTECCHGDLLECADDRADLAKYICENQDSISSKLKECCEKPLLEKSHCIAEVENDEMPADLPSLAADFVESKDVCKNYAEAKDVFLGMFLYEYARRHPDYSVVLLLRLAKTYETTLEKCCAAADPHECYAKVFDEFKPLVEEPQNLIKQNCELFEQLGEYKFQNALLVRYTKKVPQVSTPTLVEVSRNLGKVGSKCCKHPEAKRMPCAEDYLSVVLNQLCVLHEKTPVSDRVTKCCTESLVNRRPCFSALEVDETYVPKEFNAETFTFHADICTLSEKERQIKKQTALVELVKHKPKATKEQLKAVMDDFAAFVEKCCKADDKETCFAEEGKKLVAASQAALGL

[2] = biological target: T2, VEGFR2-Fc fusion; assay: biolayer interferometry (Octet Red), biotinylated WW-B1 on streptavidin sensors, VEGFR2-Fc 1 to 100 nM, steady state analysis
T2 construct: Bought from R&D Systems
Protocol: Real time binding assays between chemically synthesised clone WW-B1 and VEGFR2-Fc fusion were performed using biolayer interferometry with an Octet Red system (Fortebio, Menlo Park, Calif.). Biotinylated WW-B1 was immobilised to streptavidin biosensors (Fortebio) at a concentration of 50 ng/μl in PBS. Association curves were then detected by incubating WW-B1-coated sensors with different concentrations of VEGFR2 (1 to 100 nM in PBS), and dissociations were detected by incubating the sensors in PBS. The dissociation constant for WW-B1 binding to VEGFR2 was determined by steady state analysis to be 44 nM±1.1 nM (FIG. 5).

[3] = biological target: T3, Human β-NGF (human, UniProt P01138 123-240, limits assumed); assay: phage ELISA: phage-displayed clone on NGF-coated wells (left bar of each pair), read at 450 nm; control: HSA-coated wells (right bar)
T3 construct: R&D Systems; It was biotinylated via carboxyl groups for the selection
T3 sequence (P01138 123-240 limits assumed): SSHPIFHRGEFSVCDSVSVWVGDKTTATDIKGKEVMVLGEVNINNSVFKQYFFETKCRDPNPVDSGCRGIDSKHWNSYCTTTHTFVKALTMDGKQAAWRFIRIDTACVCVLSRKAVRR

[4] = biological target: T1, human serum albumin; assay: phage ELISA for specificity: 50 ng of each protein coated per well, absorbance at 450 nm; six bars per clone in the order of the legend: VEGFR2, human IgG, monoclonal antibody, enzyme, HSA, blocked well
Protocol: (§1) ELISAs were then performed to screen for modified WW domain peptides that bind to the target ligand. NUNC Maxisorp plates were coated with 50 ng per well of VEGFR2 in PBS overnight at 4° C. After blocking the plates with PBS, 2% BSA, 0.1% Tween-20, phage displaying the selected clones were added, diluted in blocking buffer, and incubated for 1 hour. WW domain binders were detected using horseradish peroxidase-conjugated anti-M13 antibody (GE) and SureBlue TMB peroxidase substrate (Insight Biotechnology, Middlesex, UK); and the ELISA signal was read at 450 nm.
The specificity of clones selected for binding to VEGFR2 was assayed in an ELISA against a selection of non-target peptides/proteins, as described above. 50 ng of each of the different target and non-target proteins was coated per well of and ELISA plate and each of the modified WW domain peptides was added.

[5] = biological target: T2, VEGFR2-Fc fusion; assay: phage ELISA: phage-displayed clone on wells coated with 50 ng VEGFR2, anti-M13-HRP, absorbance at 450 nm; control: uncoated blocked wells (light bars)
Protocol: as §1

[6] = biological target: T2, VEGFR2-Fc fusion; assay: biolayer interferometry (Octet Red), peptide on streptavidin sensors, steady state analysis; cyclised WW-B1, steady state analysis
Protocol: Real-time binding assays between the peptides and VEGFR2-Fc fusion were performed using biolayer interferometry with an Octet Red system (Fortebio, Menlo Park, Calif.). WW peptides were immobilised on streptavidin biosensors (Fortebio) at a concentration of 2 μg/ml in kinetic buffer. Association curves were then detected by incubating the immobilised peptide with […] (1 to 100 nM in kinetic buffer), and dissociations were detected by incubating the sensors in kinetic buffer. All of the peptides from the affinity maturation, bind to VEGFR2 with a similar affinity as WW-B1.
The dissociation constant for cyclised WW-B1 binding to VEGFR2 was determined by steady state analysis to be 31 nM±4.8 nM (FIG. 12).

[7] = biological target: T2, VEGFR2-Fc fusion; assay: competition ELISA: inhibition of VEGFR2 binding to coated VEGF by WW-B1-MBP
Protocol: A competition assay was carried out in which binding of VEGFR2 to VEGF-A (VEGF) was competed by the presence of varying amounts of the selected modified WW domain peptide.
50 ng human VEGF (R&D Systems, Abingdon, UK) 1 μg/ml in PBS was coated per well onto a Maxisorp plate at 37° C. for 140 minutes. The wells were then blocked with 100 μl PBS containing 2% BSA for 55 minutes at room temperature. 1.25 ng VEGFR2 was preincubated with WW-B1 fused to maltose binding protein (MBP) in 50 μl PBS for 45 minutes at room temperature. The activity of the WW-B1 peptide was tested at serial dilutions from 10 μM to 156.25 nM. 50 μl 4% BSA in PBS was added to the preincubated VEGFR2 with WW-B1-MBP and the whole mixture was then added to the VEGF coated ELISA plate and incubated at room temperature for 55 minutes. The plate was then washed with 3 washes in PBS-Tween and 2 washes in PBS. Next 50 μl/well penta His-HRP (QIAgen, diluted 1:500 in 2% BSA in PBS) was added and the mixture incubated at room temperature for 55 minutes, before washing as before. ELISA signals were detected using SureBlue TMB peroxidase substrate (Insight biotechnology, Middlesex, UK) at 450 nm.
As a control, the above process was repeated with wild-type Pin1 WW domain peptide replacing WW-B1. The results are illustrated in FIG. 6.

B1: NP-E3 (designed binder)
modified Pin1 WW domain peptide displayed on phage: MADEEKLPPGWGKPWSARGRVTYINLITVAEQWERPS
[1]
  binding result: no binding

B2: WW-B1 VEGFR2 WW domain, chemically synthesised, biotinylated (linear) (designed binder)
peptide: Biotin-MADEEKLPPGWYKMWSSPGRVLYVNDITHAHRWERPSG
modifications: not fully specified
notes: Modified Pin1 WW domain; also called linear WW-B1; clone WW-B1
[2]
  Kd: 44 nM

B3: clone NP-A12, phage-displayed modified Pin1 WW domain peptide (designed binder, not shown: large carriers)
chain: MADEEKLPPGWAVWSPDGRLYYWNSVIVSTRWGRPSC
modifications: also: fused to gpIII (M13 phage display), linker not given here
[3]
  binding result: binds
[1]
  binding result: no binding

B4: clone A1, phage-displayed modified Pin1 WW domain peptide (designed binder, not shown: large carriers)
chain: MADEEKLPPGWCKFWSTAGRVIYINRITGAKQWERPSG
modifications: also: fused to gpIII (M13 phage display), linker not given here
[4]
  binding result: no binding

B5: clone H4, phage-displayed modified Pin1 WW domain peptide (designed binder, not shown: large carriers)
chain: MADEEKLPPGWGKGWSPRGRVWYTNRTTVAAQWERPSG
modifications: also: fused to gpIII (M13 phage display), linker not given here
[5]
  binding result: binds
[4]
  binding result: no binding

B6: clone NP-H8, phage-displayed modified Pin1 WW domain peptide (designed binder, not shown: large carriers)
chain: MADEEKLPPGWTVWSPNGRVYYWNSITVARQWERPSG
modifications: also: fused to gpIII (M13 phage display), linker not given here
[3]
  binding result: binds
[1]
  binding result: no binding

B7: cyclic WW-B1 peptide (Glu38 variant), cyclised through amino acids at positions 6 and 38 (designed binder)
peptide: Biotin-DEEKLPPGWYKMWSSPGRVLYVNDITHAHRWERPEG-NH2
modifications: lactam 4-35
SMILES: CC[C@H](C)[C@@H]1NC(=O)[C@H](CC(=O)O)NC(=O)[C@H](CC(N)=O)NC(=O)[C@H](C(C)C)NC(=O)[C@H](Cc2ccc(O)cc2)NC(=O)[C@H](CC(C)C)NC(=O)[C@H](C(C)C)NC(=O)[C@H](CCCNC(=N)N)NC(=O)CNC(=O)[C@@H]2CCCN2C(=O)[C@H](CO)NC(=O)[C@H](CO)NC(=O)[C@H](Cc2c[nH]c3ccccc23)NC(=O)[C@H](CCSC)NC(=O)[C@H](CCCCN)NC(=O)[C@H](Cc2ccc(O)cc2)NC(=O)[C@H](Cc2c[nH]c3ccccc23)NC(=O)CNC(=O)[C@@H]2CCCN2C(=O)[C@@H]2CCCN2C(=O)[C@H](CC(C)C)NC(=O)[C@@H](NC(=O)[C@H](CCC(=O)O)NC(=O)[C@H](CCC(=O)O)NC(=O)[C@H](CC(=O)O)NC(=O)CCCC[C@@H]2SC[C@@H]3NC(=O)N[C@@H]32)CCCCNC(=O)CC[C@@H](C(=O)NCC(N)=O)NC(=O)[C@@H]2CCCN2C(=O)[C@H](CCCNC(=N)N)NC(=O)[C@H](CCC(=O)O)NC(=O)[C@H](Cc2c[nH]c3ccccc23)NC(=O)[C@H](CCCNC(=N)N)NC(=O)[C@H](Cc2c[nH]cn2)NC(=O)[C@H](C)NC(=O)[C@H](Cc2c[nH]cn2)NC(=O)[C@H]([C@@H](C)O)NC1=O
notes: also called cyclised WW-B1
[6]
  Kd: 31 nM

B8: clones B1 and H1, phage-displayed modified Pin1 WW domain peptide (designed binder, not shown: large carriers)
chain: MADEEKLPPGWYKMWSSPGRVLYVNDITHAHRWERPSG
modifications: also: fused to gpIII (M13 phage display), linker not given here
notes: also called WW-B1
[4]
  binding result: no binding

B9: WW-B1 fused to maltose binding protein (MBP) (designed binder, not shown: large carriers)
chain: MADEEKLPPGWYKMWSSPGRVLYVNDITHAHRWERPSG
modifications: also: fused to maltose binding protein (MBP), order and linker not given here
notes: also called WW-B1-MBP
[7]
  EC50: 76 nM

B10: clone B4, phage-displayed modified Pin1 WW domain peptide (designed binder, not shown: large carriers)
chain: MAVEEKLPPGWYKMWSSPGRVLYVNDITHAHQWERPSG
modifications: also: fused to gpIII (M13 phage display), linker not given here
[5]
  binding result: binds

B11: clones E1, E3, H3, C4, E4, G4 and H6, phage-displayed modified Pin1 WW domain peptide (designed binder, not shown: large carriers)
chain: MADEEKLPPGWYKMWSSPGRVLYVNDITHAHQWERPSG
modifications: also: fused to gpIII (M13 phage display), linker not given here
[4]
  binding result: no binding
